According to article PMC5095173, “Disulfide-activated protein kinase G Iα regulates cardiac diastolic relaxation and fine-tunes the Frank–Starling response” (Nature Communications, 2016):
Where no end group is shown, it is not given here.

B1: oxidized (WT) protein kinase G Iα, Cys42 disulfide dimer (enzyme, human, UniProt Q13976 1-671, looked up)
chain: MSELEEDFAKILMLKEERIKELEKRLSEKEEEIQELKRKLHKCQSVLPVPSTHIGPRTTRAQGISAEPQTYRSFHDLRQAFRKFTKSERSKDLIKEAILDNDFMKNLELSQIQEIVDCMYPVEYGKDSCIIKEGDVGSLVYVMEDGKVEVTKEGVKLCTMGPGKVFGELAILYNCTRTATVKTLVNVKLWAIDRQCFQTIMMRTGLIKHTEYMEFLKSVPTFQSLPEEILSKLADVLEETHYENGEYIIRQGARGDTFFIISKGTVNVTREDSPSEDPVFLRTLGKGDWFGEKALQGEDVRTANVIAAEAVTCLVIDRDSFKHLIGGLDDVSNKAYEDAEAKAKYEAEAAFFANLKLSDFNIIDTLGVGGFGRVELVQLKSEESKTFAMKILKKRHIVDTRQQEHIRSEKQIMQGAHSDFIVRLYRTFKDSKYLYMLMEACLGGELWTILRDRGSFEDSTTRFYTACVVEAFAYLHSKGIIYRDLKPENLILDHRGYAKLVDFGFAKKIGFGKKTWTFCGTPEYVAPEIILNKGHDISADYWSLGILMYELLTGSPPFSGPDPMKTYNIILRGIDMIEFPKKIAKNAANLIKKLCRDNPSERLGNLKNGVKDIQKHKWFEGFNWEGLRKGTLTPPIIPSVASPTDTSNFDSFPEDNDEPPPDDNSGWDIDF
modifications: intermolecular disulfide bond at Cys42 between the two subunits
notes: protein kinase G Iα (cGMP-dependent protein kinase 1, alpha isoform), human, untagged WT construct; also called PKGIα; source: FreeStyle 293-F cells, transfected, purified (8-AEA-cAMP agarose, size exclusion chromatography); incubated with 10 mM lipoic acid to obtain the disulfide dimer
B2: N-terminally acetylated peptide of the N-terminal cytoplasmic domain of human phospholamban, PLN (amino acid 1-23) (peptide, UniProt P26678 1-23, looked up)
peptide: Ac-MEKVQYLTRSAIRRASTIEMPQQ
notes: cardiac phospholamban, human, residues 1-23 (N-terminal cytoplasmic domain); also called PLN_(1–23); PLN (1–23); source: synthetic peptide; bought: PeptideSynthetics (Peptide Protein Research Ltd, UK)

Tests used:
[1] = molecular target: the molecule itself; assay: cross-linking; intermolecular Cys42 disulfide of purified recombinant PKGIα (lipoic acid or air oxidation) seen as dimer by SDS-PAGE
[2] = molecular target: B1; assay: ITC; PLN (1–23) (700 μM) titrated into the cell containing WT disulfide PKGIα or the C42S mutant (70 μM); 25 °C; 50 mM sodium phosphate buffer pH 7.4, 100 mM NaCl; no cyclic nucleotide; details: both partners purified

## B1
[1]
  stoichiometry N: 2

## B2
[2]
  Kd: ~7 µM
  stoichiometry N: 1 PLN peptide per PKGIα disulfide dimer
